Results taken from ChEMBL document CHEMBL3525898, “Pharmacogenomics of gemcitabine metabolism: functional analysis of genetic variants in cytidine deaminase and deoxycytidine kinase” (Drug Metab Dispos, 2013).

Substrate: Nc1ccn([C@@H]2O[C@H](CO)[C@@H](O)C2(F)F)c(=O)n1
Experiment: Activity of human recombinant N-terminal His-SUMO fused wild type CDA expressed in Escherichia coli BL21(DE3) cells assessed as 2',2'-difluorodeoxyuridine formation by liquid chromatography-tandem mass spectrometry
Format: ADME

B1: Cytidine deaminase (Homo sapiens) (protein)
chain: MAQKRPACTLKPECVQQLLVCSQEAKKSAYCPYSHFPVGAALLTQEGRIFKGCNIENACYPLGICAERTAIQKAVSEGYKDFRAIAIASDMQDDFISPCGACRQVMREFGTNWPVYMTKPDGTYIVMTVQELLPSSFGPEDLQKTQ
In the case of B1, the Km is reported as 630 µM and the Vmax is reported as 0.187 µmol/min/mg.
